Test results: PMC7321154, “Pharmacokinetic Properties of ^68Ga-labelled Folic Acid Conjugates: Improvement Using HEHE Tag” (Molecules, 2020)
Numbered stars: 1 amine (or outer) side, 2 acyl side, 3 side chain; on linkers, the order of the positions; unused ones are H or OH. Peptide text beside a SMILES is read from it. * marks the point of attachment. NODAGA = O=C(O)CN1CCN(CC(=O)O)CCN(C(CCC(=O)*)C(=O)O)CC1; Pteroyl = Nc1nc2ncc(CNc3ccc(C(=O)*)cc3)nc2c(=O)[nH]1; γGlu = O=C(O)[C@H](CCC(=O)[*:2])N[*:1]

What was measured:
in vitro = in vitro ADME; settings: human, plasma
Procedure: The plasma stability of [^68Ga]Ga-FA-I and [^68Ga]Ga-FA-II was determined in human plasma in vitro.

in vivo [1] = experiment: in vivo; parameters: species or system Wistar rats; settings: Wistar, rat, iv, total radioactivity
Procedure: Normal biodistribution studies were carried out in healthy Wistar rats. Animals were grouped (N = 5/group) and injected with 10−12 MBq/100 μL of each ^68Ga-NODAGA-folate conjugate into the tail vein. Nonspecific uptake in FR-positive organs (e.g., kidneys) was determined by 5 min of folic acid pre-injection (36 μM, 100 μL) in PBS pH 7.4. At preselected time points of (30, 60, 90, 120 min for rats and 30, 60 min for mice) animals were sacrificed. The organs of interest were collected, blotted dry, weighed, and counted using a WIZARD^2 automatic γ-counter (PerkinElmer). The results are expressed as the percentage of injected activity dose per gram (% ID/g ± SD) for each organ/tissue.

in vivo [2] = experiment: in vivo; parameters: species or system BALB/c nude mice; settings: female, BALB/c nude, mouse, iv, total radioactivity; for tissue to tissue ratio at 0.5 h / tissue to tissue ratio at 1 h: Differential uptake ratio (DUR)
Procedure: For the experimental tumor models athymic female BALB/c nude mice (4−5 weeks old, 18−20 g) were subcutaneously inoculated in the right flank with suspended 2 × 10^6 KB cells (150 μL, Opti-MEM (Gibco, Thermo Fisher Scientific, Waltham, MA, USA) and 50% Matrigel (Becton Dickinson, Franklin Lakes, NJ, USA). Tumors were allowed to grow for 12−16 days (tumor weight 500−900 mg). Animals were grouped (N = 3–5/group) and injected with 10−12 MBq/100 μL of each ^68Ga-NODAGA-folate conjugate into the tail vein. At preselected time points of (30, 60, 90, 120 min for rats and 30, 60 min for mice) animals were sacrificed. The organs of interest were collected, blotted dry, weighed, and counted using a WIZARD^2 automatic γ-counter (PerkinElmer). The results are expressed as the percentage of injected activity dose per gram (% ID/g ± SD) for each organ/tissue.

SMILES: Nc1nc2ncc(CNc3ccc(C(=O)N[C@@H](CCC(=O)N[C@@H](CCCCNC(=O)CCC(C(=O)O)N4CCN(CC(=O)O)CCN(CC(=O)O)CC4)C(=O)N[C@@H](Cc4c[nH]cn4)C(=O)N[C@@H](CCC(=O)O)C(=O)N[C@@H](Cc4c[nH]cn4)C(=O)N[C@@H](CCC(=O)O)C(=O)O)C(=O)O)cc3)nc2c(=O)[nH]1 (stereo partly shown) [[^68Ga]Ga-FA-II, metal not drawn] ({Pteroyl-γGlu}-K(NODAGA)HEHE-OH)
- remaining at 3 h (in vitro): > 99%
- tissue uptake at 1 h (in vivo [1]): 4.27 ± 0.93 %ID/g
- tissue uptake at 0.5 h (in vivo [1]; accumulation in blood): 0.28 ± 0.03 %ID/g
- tissue uptake at 1 h (in vivo [1]; accumulation in blood): 0.22 ± 0.06 %ID/g
- tissue uptake at 1.5 h (in vivo [1]; accumulation in blood): 0.09 ± 0.01 %ID/g
- tissue uptake at 2 h (in vivo [1]; accumulation in blood): 0.06 ± 0.02 %ID/g
- tissue uptake at 0.5 h (in vivo [1]; accumulation in brain): 0.04 ± 0.01 %ID/g
- tissue uptake at 1 h (in vivo [1]; accumulation in brain): 0.02 ± 0.01 %ID/g
- tissue uptake at 1.5 h (in vivo [1]; accumulation in brain): 0.02 ± 0.01 %ID/g
- tissue uptake at 2 h (in vivo [1]; accumulation in brain): 0.01 ± 0.01 %ID/g
- tissue uptake at 0.5 h (in vivo [1]; accumulation in heart): 0.27 ± 0.07 %ID/g
- tissue uptake at 1 h (in vivo [1]; accumulation in heart): 0.16 ± 0.08 %ID/g
- tissue uptake at 1.5 h (in vivo [1]; accumulation in heart): 0.1 ± 0.01 %ID/g
- tissue uptake at 2 h (in vivo [1]; accumulation in heart): 0.08 ± 0.01 %ID/g
- tissue uptake at 0.5 h (in vivo [1]; accumulation in kidneys): 4.03 ± 0.94 %ID/g
- tissue uptake at 1 h (in vivo [1]; accumulation in kidneys): 4.64 ± 1.8 %ID/g
- tissue uptake at 1.5 h (in vivo [1]; accumulation in kidneys): 4.42 ± 1.27 %ID/g
- tissue uptake at 2 h (in vivo [1]; accumulation in kidneys): 4.34 ± 0.18 %ID/g
- tissue uptake at 0.5 h (in vivo [1]; accumulation in liver): 0.18 ± 0.06 %ID/g
- tissue uptake at 1 h (in vivo [1]; accumulation in liver): 0.12 ± 0.06 %ID/g
- tissue uptake at 1.5 h (in vivo [1]; accumulation in liver): 0.07 ± 0.01 %ID/g
- tissue uptake at 2 h (in vivo [1]; accumulation in liver): 0.05 ± 0.01 %ID/g
- tissue uptake at 0.5 h (in vivo [1]; accumulation in lungs): 0.28 ± 0.06 %ID/g
- tissue uptake at 1 h (in vivo [1]; accumulation in lungs): 0.24 ± 0.07 %ID/g
- tissue uptake at 1.5 h (in vivo [1]; accumulation in lungs): 0.12 ± 0.02 %ID/g
- tissue uptake at 2 h (in vivo [1]; accumulation in lungs): 0.11 ± 0.02 %ID/g
- tissue uptake at 1 h (in vivo [1]; accumulation in muscle): 0.06 ± 0.01 %ID/g
- tissue uptake at 1.5 h (in vivo [1]; accumulation in muscle): 0.04 ± 0.01 %ID/g
- tissue uptake at 2 h (in vivo [1]; accumulation in muscle): 0.04 ± 0.01 %ID/g
- tissue to tissue ratio at 0.5 h (in vivo [2]; Tumor-to-blood): 1.6 ± 0.5
- tissue to tissue ratio at 1 h (in vivo [2]; Tumor-to-blood): 6.1 ± 2.5
- tissue to tissue ratio at 0.5 h (in vivo [2]; Tumor-to-kidneys): 0.39 ± 0.18
- tissue to tissue ratio at 1 h (in vivo [2]; Tumor-to-kidneys): 0.79 ± 0.28
- tissue to tissue ratio at 0.5 h (in vivo [2]; Tumor-to-muscle): 7.1 ± 2.8
- tissue to tissue ratio at 1 h (in vivo [2]; Tumor-to-muscle): 28.9 ± 13.7
- tissue uptake at 0.5 h (in vivo [2]; accumulation in bladder): 1.46 ± 0.53 %ID/g
- tissue uptake at 1 h (in vivo [2]; accumulation in bladder): 0.96 ± 0.46 %ID/g
- tissue uptake at 0.5 h (in vivo [2]; accumulation in brain): 0.09 ± 0.03 %ID/g
- tissue uptake at 1 h (in vivo [2]; accumulation in brain): 0.1 ± 0.03 %ID/g
- tissue uptake at 0.5 h (in vivo [2]; accumulation in intestines): 0.46 ± 0.15 %ID/g
- tissue uptake at 1 h (in vivo [2]; accumulation in intestines): 0.45 ± 0.13 %ID/g
- tissue uptake at 0.5 h (in vivo [2]; accumulation in kidneys): 4.47 ± 0.97 %ID/g
- tissue uptake at 1 h (in vivo [2]; accumulation in kidneys): 4.64 ± 0.26 %ID/g
- tissue uptake at 0.5 h (in vivo [2]; accumulation in liver): 0.51 ± 0.13 %ID/g
- tissue uptake at 1 h (in vivo [2]; accumulation in liver): 0.27 ± 0.08 %ID/g
- tissue uptake at 0.5 h (in vivo [2]; accumulation in muscle): 0.24 ± 0.04 %ID/g
